Results: patent US9040042B2, “Optimized antibodies that target HM1.24” (Xencor, Inc., priority 2006, dated 2015)
Values joined by “and” are separate entries in the source; they are usually repeats but may differ in a detail not shown here. Identical values can stand only once. Like-named read-outs stand apart in the source and are kept apart here.

What was measured:
[1] = molecular target: T1, CD20 (Homo sapiens, UniProt P11836); conditions: cited from earlier work
T1 construct: endogenous in cells; host or cells: patients' own cells (clinical treatment, reported from the literature)
T1 sequence (P11836 1-297): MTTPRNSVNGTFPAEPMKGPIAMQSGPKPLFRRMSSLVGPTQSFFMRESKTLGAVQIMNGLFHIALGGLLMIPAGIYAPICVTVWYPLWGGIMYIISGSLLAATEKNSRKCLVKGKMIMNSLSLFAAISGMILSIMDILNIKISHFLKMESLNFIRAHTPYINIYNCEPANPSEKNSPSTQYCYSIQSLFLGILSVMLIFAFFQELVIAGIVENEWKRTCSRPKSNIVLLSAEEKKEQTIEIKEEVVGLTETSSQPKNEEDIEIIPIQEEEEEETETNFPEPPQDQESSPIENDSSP

[2] = molecular target: T2, human V158 FcγRIIIa (Homo sapiens, UniProt P08637, F176V); conditions: read-out: affinity for human V158 FcγRIIIa, cited from earlier work
T2 sequence (P08637 17-208 F176V limits assumed): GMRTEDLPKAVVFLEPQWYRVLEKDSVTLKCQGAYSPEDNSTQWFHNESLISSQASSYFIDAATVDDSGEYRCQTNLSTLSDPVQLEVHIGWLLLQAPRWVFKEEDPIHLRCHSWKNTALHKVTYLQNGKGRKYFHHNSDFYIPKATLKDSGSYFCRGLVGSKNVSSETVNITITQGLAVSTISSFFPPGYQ

[3] = molecular target: T3, human F158 FcγRIIIa (Homo sapiens, UniProt P08637); assay: Binding of human WT IgG1 to human F158 FcγRIIIa (Biacore, calorimetry); conditions: present study; binding lower than the 5 uM cutoff applied; read-out: affinity for human F158 FcγRIIIa
T3 sequence (P08637 17-208 limits assumed): as the sequence (P08637 17-208 F176V limits assumed) above, with V160F counted along it
Procedure: (§1) This is consistent with the literature which indicate that binding is approximately 200-500 nM, as determined by Biacore (210 nM as shown in Okazaki et al, 2004, J Mol Bio 336:1239-49; 250 nM as shown in Lazar et al, Proc Natl Acad Sci USA 103(11):4005-4010) and calorimetry (530 nM, Okazaki et al, 2004, J Mol Bio 336:1239-49).

[4] = molecular target: T3, human F158 FcγRIIIa; conditions: read-out: affinity for human F158 FcγRIIIa, cited from earlier work
[5] = molecular target: T2, human V158 FcγRIIIa; assay: Binding of human WT IgG1 to human V158 FcγRIIIa (Biacore, calorimetry); conditions: present study; read-out: affinity for human V158 FcγRIIIa
Procedure: as §1

[6] = calorimetry, Okazaki et al 2004

Substance | clinical efficacy ([1]; patients homozygous or heterozygous for FcγRIIIA 158F, Carton 2002, Weng 2003) | clinical response ([1]; patients with FcγRIIIA 158 V/V homozygous genotype, Dall'Ozzo et al. 2004) | Kd ([2]; Biacore, Okazaki et al 2004, Lazar et al) | Kd [2, 6] [nM] | Kd ([2]; literature overall) [nM] | Kd ([2]; one study, Ferrara et al 2006) [nM] | Kd [3] [µM] | Kd ([4]; Biacore, Ferrara et al 2006) [µM] | Kd [4, 6] [µM] | Kd ([4]; literature overall) [µM] | Kd [5] [nM]
Rituxan: anti-CD20 antibody Rituxan® (rituximab) | minimally effective | better clinical response | – | – | – | – | – | – | – | – | –
human WT IgG1: Human wild type IgG1 immunoglobulin, reference for Fc receptor binding | – | – | 210 nM and 250 nM | 530 | 200 to 500 | 750 | > 5 | 5 | 2.7 | 3 to 5 | ~240
